Results taken from patent US8278415B2, “Dimeric high affinity EGFR constructs and uses thereof” (Centocor, Inc., priority 2006, dated 2012).
Converted amounts (≈) assume the structure as drawn. Read-outs that look alike come from different tables or passages of the source. Blank lines part the entries; values can stand above or below the molecule they belong to.

Tests used:
A431 cells = test: Flow cytometry of phage binding to A431 cells; assay type: cell-based, human; conditions: for binding to A431 tumor cells: anti-phage-FITC
Method: (§1) To evaluate whether the selected peptides from phage display can bind to tumor cells that overexpress EGFR, A431 cells (epidermoid cancer) or an EGFR negative tumor cells, MCF-7 (breast carcinoma) were tested in a flow cytometry assay using fluorescence detection (FACS). For P145, PP146 and their control phage, 2.5×10^5 A431 cells were resuspended in 25 μl of flow staining buffer (dPBS with 1% BSA, 0.09% sodium azide) and incubated with 25 μl of phage clones for 1 hour at 4° C. […] Cells were washed two times with flow staining buffer and then incubated with 0.5 μg of mouse anti M13/fd/Fl filamentous phages monoclonal antibody conjugated to FITC (Fitzgerald Industries International, Inc. Concord, Mass.) for 45 minutes at 4° C. Cells were washed two times with flow staining buffer and acquired by FACSCalibur (BD, Franklin Lakes, N.J.) to detect bound phages on tumor cell surface.
A431 cells (epidermoid cancer) which overexpress EGFR and EGFR-negative tumor cells, MCF-7 (breast carcinoma) were tested in a flow cytometry assay. Tumor cells (A431 and MCF-7) were harvested with 0.25% tyrpsin-EDTA and washed twice with FACS staining buffer (dPBS with 1% BSA, 0.09% sodium azide). […] After binding at 4° C., cells were washed twice with FACS staining buffer to remove unbound phage and then incubated with 0.5 μg of mouse anti-M13 monoclonal antibody conjugated to FITC (Fitzgerald Industries International, Inc. Concord, Mass.) for 1 hour at 4° C. Mouse anti-M13-FITC incubated with cells without phage was used as background binding. Cells were washed twice with FACS staining buffer to remove unbound detection antibody.

sEGFR-MMB [1] = biological target: T1, sEGFR-MMB (Homo sapiens, UniProt P00533); test: Competitive phage ELISA (EGF, TGF-α, IMC-c225 as competitive agent); assay type: binding
T1 construct: made in house; host or cells: HEK 293E
Method: (§2) Phage were amplified in XL-1 Blue host cells and purified by precipitation with 6% polyethylene glycol-8000/0.5 M sodium chloride. The precipitated phage were resuspended in phosphate-buffered saline in a volume that was 1/100th the original culture volume. […] The binding reaction was incubated for 1 hr at room temperature, and then bound phage were detected with anti-M13/HRP as above. For ELISAs with biotinylated receptors, streptavidin at 5 μg/ml was coated in the wells overnight at 4° C. […] The wells were rinsed with TBS-T and then blocked with Starting Block. Bound phage were washed and detected with anti-M13/HRP as described above.

b-sEGFR-His = biological target: T2, b-sEGFR-His (Homo sapiens, UniProt P00533); test: Phage ELISA on biotinylated sEGFR-His6 captured on streptavidin; assay type: binding; conditions: biotinylated and immobilized on streptavidin
T2 construct: made in house; host or cells: HEK293E
Method: as §2

sEGFR-MMB [2] = biological target: T1, sEGFR-MMB; test: Phage ELISA on coated sEGFR-MMB; assay type: binding
Method: (§3) The protein solution was removed and wells were rinsed twice with Tris-Buffered Saline containing 0.05% Tween-20 (TBS-T) using a plate washer (Embla). The wells were blocked with Starting Block in TBS for 1 hr at room temperature and rinsed twice with TBS-T. An equal volume of phage supernatant and Starting Block in TBS were incubated in the wells for 1 hr at room temperature, and the wells were rinsed five times with TBS-T. Anti-M13/horseradish peroxidase conjugate (Amersham), diluted 1:5000 in Starting Block in TBS, was added into the wells and incubated for 1 hour at room temperature, and then the wells were rinsed five times with TBS-T. Finally, chemiluminescent peroxidase substrate (Roche) was added to the wells, and chemiluminescence was measured on a Tecan plate reader.
as §2
(§4) The plates were held overnight at room temperature, washed twice with TBST (0.5M Tris Base, 9% NaCl, 0.05% tween, pH 7.6), and loaded with 200 μL per well of Starting Block (Pierce). […] The plates were held at room temperature for 1.5 hours for blocking Plates were then washed twice with TBST and phage were added. The phage solutions were crude phage supernatant from overnight cultures diluted four-fold with Starting Block. After a one-hour incubation, the plates were washed thrice with TBST and 100 μL of a 1:5000 dilution of phage binding antibody conjugate (α-M13-HRP) was added to the wells. EGF was added if applicable. After a one-hour incubation the plates were washed five times with TBST, 100 μL of POD (BM Chemiluminescence ELISA substrate; Roche Applied Science) was added, and chemiluminescene recorded.

MDA-MB-468 = test: cells; conditions: Homo sapiens
b-sEGFR-MMB = biological target: T3, b-sEGFR-MMB (Homo sapiens, UniProt P00533); test: Phage ELISA on biotinylated sEGFR-MMB captured on streptavidin; assay type: binding
T3 construct: made in house; host or cells: HEK 293E
Method: as §2

Control-MMB = Control-MMB (Homo sapiens, UniProt P01857); test: Phage ELISA on Control-MMB; assay type: binding
Method: as §3
The plates were held overnight at room temperature, washed twice with TBST (0.5M Tris Base, 9% NaCl, 0.05% tween, pH 7.6), and loaded with 200 μL per well of Starting Block (Pierce). […] The plates were held at room temperature for 1.5 hours for blocking Plates were then washed twice with TBST and phage were added. […] After a one-hour incubation the plates were washed five times with TBST, 100 μL of POD (BM Chemiluminescence ELISA substrate; Roche Applied Science) was added, and chemiluminescene recorded.

sEGFR-His6 = biological target: T4, sEGFR-His6 (Homo sapiens, UniProt P00533); test: Phage ELISA on coated sEGFR-His6; assay type: binding
T4 construct: made in house; host or cells: HEK293E
Method: as §4

EGF + sEGFR-MMB Complex = biological target: T5, EGF + sEGFR-MMB Complex (Homo sapiens, UniProt P00533); test: Phage ELISA on sEGFR-MMB in the presence of EGF; assay type: binding
T5 construct: made in house
Method: as §4

MCF-7 = test: Flow cytometry of phage binding to MCF-7 cells; assay type: cell-based, human
Method: as §1
A431 cells (epidermoid cancer) which overexpress EGFR and EGFR-negative tumor cells, MCF-7 (breast carcinoma) were tested in a flow cytometry assay. Tumor cells (A431 and MCF-7) were harvested with 0.25% tyrpsin-EDTA and washed twice with FACS staining buffer (dPBS with 1% BSA, 0.09% sodium azide). […]

Molecule: VLCHRYYHPICYT [P145]
binding to A431 relative to positive control EGF phage (A431 cells): weaker than that exhibited by a positive control phage that displayed EGF on pIII
binding to A431 tumor cells (A431 cells): displayed binding to A431 tumor cells

Molecule: TLCRSFFHPLCYA (Random peptide) [P146]
binding to A431 relative to positive control EGF phage (A431 cells): weaker than that exhibited by a positive control phage that displayed EGF on pIII
binding to A431 tumor cells (A431 cells): displayed binding to A431 tumor cells

Molecule: GPCVLIRDYYLLCLE (Random peptide) [P179]
binding to sEGFR-MMB (in words) (sEGFR-MMB [2]): bound sEGFR-MMB when it was passively immobilized in ELISA wells
binding to biotinylated sEGFR-MMB captured on streptavidin (in words) (b-sEGFR-MMB): not biotinylated sEGFR-MMB that had been captured on streptavidin

Molecule: DPCTWEVWGRECLQ [P190]
binding to A431 cells in the presence of EGF (A431 cells): increased
binding to A431 cells in the presence of EGF and cetuximab (A431 cells): decreases
binding to A431 tumor cells (A431 cells): bind to A431
binding to Control-MMB (in words) (Control-MMB): fails to bind
binding to sEGFR-His6 (in words) (sEGFR-His6; coated monomeric sEGFR): virtually no binding
Relative Signal (sEGFR-His6; construct sEGFR-His6): 6
binding to dimeric EGFR in the presence of EGF or TGF-a (EGF + sEGFR-MMB Complex; pIX display): increased in the presence of EGF or TGF-a
binding to the complex between EGF and sEGFR-MMB (in words) (EGF + sEGFR-MMB Complex; phage ELISA): binds well
Relative Signal (EGF + sEGFR-MMB Complex; phage ELISA, construct SEGFR-MMB + EGF): 29408 ± 259
competition with EGF, TGF-α, IMC-c225 (in words) (sEGFR-MMB [1]): did not compete with EGF or TGF-alpha
binding to sEGFR-MMB (in words) (sEGFR-MMB [2]): binds weakly
Relative Signal (sEGFR-MMB [2]; construct SEGFR-MMB): 3937 ± 335
binding to MCF-7 (MCF-7): not to MCF-7

Second part, led by results:

binding to sEGFR-His6 (in words) (b-sEGFR-His): bound both sEGFR-MMB and sEGFR-His6
binding to sEGFR-MMB (in words) (sEGFR-MMB [2]): bound both sEGFR-MMB and sEGFR-His6
Molecule: KTCVSTTFDLWFVCFA (Random peptide) [P176]
binding to A431 relative to positive control EGF phage (A431 cells): comparable to that by a positive control phage that displayed EGF on pIX
binding to A431 tumor cells (A431 cells): displayed binding to A431 tumor cells
competition with EGF, TGF-α, IMC-c225 (in words) (sEGFR-MMB [1]): competitive with IMC-c225 (cetuximab), EGF, and TGF-α

competition with EGF, TGF-α, IMC-c225 (in words) (sEGFR-MMB [1]): did not compete with EGFR ligands
binding to sEGFR-His6 (in words) (b-sEGFR-His): not sEGFR-His6
binding to sEGFR-MMB (in words) (sEGFR-MMB [2]): bound sEGFR-MMB
Molecule: LPDDSLPELICKVRG (Random peptide) [P175]

IC50 (MDA-MB-468; MDA-MB-468, read-out: IC50 D4): 2.5 µg/mL (≈ 4.6 µM)
IC50 (MDA-MB-468; MDA-MB-468, read-out: IC50 D6): < 1.6 µg/mL
Molecule: COc1cccc2c1C(=O)c1c(O)c3c(c(O)c1C2=O)C[C@@](O)(C(=O)CO)C[C@@H]3O[C@H]1C[C@H](N)[C@H](O)[C@H](C)O1 [Doxorubicin]

competition with EGF, TGF-α, IMC-c225 (in words) (sEGFR-MMB [1]): not inhibited by the EGFR ligands tested
binding to sEGFR-His6 (in words) (b-sEGFR-His): bound both sEGFR-MMB and sEGFR-His6
binding to sEGFR-MMB (in words) (sEGFR-MMB [2]): bound both sEGFR-MMB and sEGFR-His6
Molecule: SGCLDALWQCVY (Random peptide) [P174]
binding to A431 relative to positive control EGF phage (A431 cells): comparable to that by a positive control phage that displayed EGF on pIX
binding to A431 tumor cells (A431 cells): displayed binding to A431 tumor cells
